Patent US5866114A, “Crystallization of M-CSFα” (Chiron Corporation, priority 1995, dated 1999)
Substitutions are numbered along the chain they refer to. Names and notes keep the numbering of the source.

How the values were obtained:
NFS-60 cells = assay: M-CSF dependent NFS-60 bioassay (MTT readout, compared to M-CSF standard); assay type: cell-based
Description: Fractionated products were analyzed on reducing SDS-PAGE and stained with Coomassie, according to the method of Laemmli, Nature […] 227:680-685 (1970). Biological activity was determined using the M-CSF dependent NFS-60 bioassay (See Example 10 below). Antibody neutralization experiments were carried out by pre-incubating approximately 5,000 units of M-CSF dimer with varying dilutions of the neutralizing M-CSF 5H410 Mab (made to refolded E. coli CΔ150 M-CSFα dimer) prior to bioassay. (Halenbeck et al, Bio/Technology 7:710 (1989)
The purified mutein dimers were subjected to bioassay using NFS-60 cells which is an M-CSF dependent cell line which forms colonies in the presence of active M-CSF. Standards and purified mutein samples were serially diluted 1:2 in RPMI media (10% fetal bovine serum) in a 50 microliter volume in 96-well microtiter plates. 50 microliters NFS-60 cells (ATCC NO. CRL 1838), maintained in 4000U/ml M-CSF, washed 2×, and diluted to a concentration of 1×10^5 cell/ml, were added to each sample well. Plates were incubated at 37° C., 5% CO2 for 44 h. 5 mg/ml MTT dye was added to each sample and incubation continued for 4 h. 20% SDS was added to each sample. The plates were wrapped in foil and left overnight. The absorbance of each sample was read at 570 nm and compared to a standard of known M-CSF concentration.

[1] = Bioactivity after diethylpyrocarbonate (DEPC) modification of histidines; conditions: 1:100 DEPC:histidine ratio
[2] = tested on: cell surface M-CSF receptor (NFS60 cell M-CSF receptors); assay: Radioligand displacement of 125I-M-CSF from NFS-60 cell M-CSF receptors (NFS-60 receptor competition assay); assay type: binding; conditions: for IC50: 4° C., 20 hours, 300,000 NFS-60 cells, read-out: IC50 (concentration required to inhibit 50% of labeled M-CSF binding to the cells); for M-CSF receptor-binding ability: compared to parental M-CSFα; for fold decrease in binding affinity: relative to M-CSFα NΔ3CΔ158
Description: FIG. 7 illustrates the competitive binding of M-CSF and M-CSF muteins to NFS60 cell M-CSF receptors.
The purified heterodimer was submitted to the NFS60 cell based bioassay described in Example 8. The calculated specific activity was 2.9×10^6 U/mg which correlated to a 35-fold reduction as compared to the activity of the parental M-CSF heterodimer described in Example 10. The relative binding affinity to cell surface M-CSF receptor was measured by radioligand displacement in which the displacement of ^125 I-M-CSF from an M-CSF receptor by an M-CSF mutein was measured using methods well known in the art. In brief, the following were added in a final volume of 100 μl in each well of a 96-well cell culture plate: approximately 80,000 cpm of purified recombinant human M-CSF labeled with ^125 I (using Iodobeads as described by the manufacturer, Pierce, Rockford, Ill.), 300,000 NFS-60 cells that had been washed and then grown for 18 hours in growth medium minus the normal maintenance level of M-CSF, plus unlabeled M-CSF that had been serially diluted in the same medium. The plates were incubated at 4° C. for 20 hours and the cells were collected on glass-fiber filters. Maximum binding was measured in the absence of unlabeled M-CSF and non-specific binding was measured in the presence of 1000-fold greater concentration of unlabeled M-CSF (compared to labeled M-CSF). The concentration of M-CSF required to inhibit 50% of the labeled M-CSF binding to the cells (IC50) was used to determine differences in affinity. Results are expressed as percent displacement of radioactive M-CSF versus mutein concentration (FIG. 7).

B1: 158/221F heterodimer: one chain of short clone (amino acid 4 to 158) and one chain of long clone 221F (protein, UniProt P09603 33-554, looked up, variant C157S C159S)
Macrophage colony-stimulating …: EEVSEYCSHMIGSGHLQSLQRLIDSQMETSCQITFEFVDQEQLKDPVCYLKKAFLLVQDIMEDTMRFRDNTPNAIAIVQLQELSLRLKSCFTKDYEEHDKACVRTFYETPLQLLEKVKNVFNETKNLLDKDWNIFSKNCNNSFAECSSQDVVTKPDSNSLYPKAIPSSDPASVSPHQPLAPSMAPVAGLTWEDSEGTEGSSLLPGEQPLHTVDPGSAKQRPPRSTCQSFEPPETPVVKDSTIGGSPQPRPSVGAFNPGMEDILDSAMGTNWVPEEASGEASEIPVPQGTELSPSRPGGGSMQTEPARPSNFLSASSPLPASAKGQQPADVTGTALPRVGPVRPTGQDWNHTPQKTDHPSALLRDPPEPGSPRISSLRPQGLSNPSTLSAQPQLSRSHSSGSVLPLGELEGRRSTRDRRSPAEPEGGPASEGAARPLPRFNSVPLTDTGHERQSEGSFSPQLQESVFHLLVPSVILVLLAVGGLLFYRWRRRSHQEPQRADSPLEQPEGSPLTQDDRQVELPV
modifications: heterodimer short/long clone
notes: one chain of short clone (amino acid 4 to 158) and one chain of long clone 221F
For B1, the specific activity (NFS-60 cells; calculated using the peak fraction of preparative Phenyl-HPLC) was 8.0×10^7 units/mg and the “biological activity of heterodimer compared to the two homodimers” value (NFS-60 cells; refolded dimers, SE-HPLC (72 hr of refolding) or Phenyl-HPLC fractions) was “fully biologically active in vitro”.

B2: M-CSF: macrophage colony stimulating factor, form not specified, treated with DEPC to modify histidines (protein, UniProt P09603 33-554, looked up)
Macrophage colony-stimulating …: B1 Macrophage colony-stimulating … with S157C, S159C
modifications: DEPC-modified histidines
In the case of B2, the “bioactivity after DEPC modification of histidines” value [1] is reported as “significantly reduced bioactivity”.

B3: H9A, H15A: M-CSF NΔ3CΔ158 with His 9 and His 15 mutated to Ala, refolded dimer (pTAF172-2) (protein, UniProt P09603 33-554, looked up, variant H9A H15A)
Macrophage colony-stimulating …: B1 Macrophage colony-stimulating … with H9A, H15A, S157C, S159C
modifications: residues 4-158, dimer
For B3, the IC50 [2] was roughly 1000 nM, the M-CSF receptor-binding ability [2] was “greatly decreased” and the “fold decrease in binding affinity” value [2] was 50,000 fold. The “fold reduction in biological activity versus parental M-CSF NΔ3CΔ158” value (NFS-60 cells; Example 10) was ~10,000 fold and the specific activity (NFS-60 cells; Example 10, purified refolded mutein dimers, same assay as parental reference) was 7.6×10^3 U/mg.

B4: Q20A, V78K: double mutant of M-CSF, solvent accessible residues in central portion of helices A and C (protein, UniProt P09603 33-554, looked up, variant Q20A V78K)
Macrophage colony-stimulating …: B1 Macrophage colony-stimulating … with Q20A, V78K, S157C, S159C
For B4, the IC50 [2] was roughly 0.1 nM, the M-CSF receptor-binding ability [2] was “decreased” and the “fold decrease in binding affinity” value [2] was 5 fold. For the same molecule, the “fold lower specific biological activity than parental M-CSFα reference standard” value (NFS-60 cells; Example 11) was 8-10 fold and the specific biological activity (NFS-60 cells; Example 11) was 1.4×10^7 U/mg.

B5: M-CSFαNΔ3CΔ158 H9A, H15A/M-CSFβNΔ3CΔ221C157S, C159S heterodimer: one subunit of M-CSFα NΔ3CΔ158 H9A, H15A and one subunit of M-CSFβ NΔ3CΔ221 C157S, C159S (protein, UniProt P09603 33-554, looked up, variant H9A H15A C157S C159S)
Macrophage colony-stimulating …: B1 Macrophage colony-stimulating … with H9A, H15A
modifications: heterodimer of truncated α and β forms
In the case of B5, the “fold increase of IC50 compared to M-CSFα NΔ3CΔ158” value [2] is reported as 30 fold, the IC50 [2] is reported as roughly 0.5 nM and the “fold reduction in specific activity compared to parental M-CSF heterodimer” value (NFS-60 cells; Example 12) is reported as 35 fold. For the same molecule, the calculated specific activity (NFS-60 cells; Example 12, purified heterodimer) was 2.9×10^6 U/mg.
